Test results taken from patent US9290800.

Target: T1, M2Y DNA polymerase-His10 (polymerase A) (Bacteriophage M2Y) (UniProt P19894)
T1 sequence: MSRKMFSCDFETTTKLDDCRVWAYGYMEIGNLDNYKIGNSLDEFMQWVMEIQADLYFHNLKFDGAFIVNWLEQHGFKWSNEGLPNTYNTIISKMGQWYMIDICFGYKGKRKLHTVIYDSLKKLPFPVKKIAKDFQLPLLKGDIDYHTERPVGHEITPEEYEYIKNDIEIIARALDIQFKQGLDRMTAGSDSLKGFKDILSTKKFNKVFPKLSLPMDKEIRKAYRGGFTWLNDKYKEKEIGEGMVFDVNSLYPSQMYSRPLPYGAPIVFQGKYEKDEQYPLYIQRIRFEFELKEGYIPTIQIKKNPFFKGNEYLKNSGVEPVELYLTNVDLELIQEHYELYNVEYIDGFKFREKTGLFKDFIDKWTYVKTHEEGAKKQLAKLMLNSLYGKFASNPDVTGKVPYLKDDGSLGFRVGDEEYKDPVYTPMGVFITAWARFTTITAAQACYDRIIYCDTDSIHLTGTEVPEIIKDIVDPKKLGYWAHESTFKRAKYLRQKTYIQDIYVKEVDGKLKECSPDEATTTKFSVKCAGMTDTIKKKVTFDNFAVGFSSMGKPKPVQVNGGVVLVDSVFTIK
Conditions: average amplification per round over two rounds

FMR1 genomic fragment SMRTbell
activity: 177 fold
